Data as given in patent US20050272635A1 (published 2005).

Biological target: T1, glycoprotein hormone beta 5 (GPHB5) (human, UniProt Q86YW7 25-130, one N-linked glycosylation (position not given))
T1 construct: Secreted from the CHO 180 cell line co-expressing GPHA2 and GPHB5; also called beta subunit of CGH
T1 sequence: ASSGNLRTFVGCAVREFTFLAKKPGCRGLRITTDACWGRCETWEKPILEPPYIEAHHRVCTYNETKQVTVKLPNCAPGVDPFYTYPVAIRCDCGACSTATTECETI
Test: co-expression in CHO cells; secreted heterodimer

- binding result: binds
B1: glycoprotein hormone alpha2 (GPHA2) (ligand)
chain: QEAVIPGCHLHPFNVTVRSDRQGTCQGSHVAQACVGHCESSAFPSRYSVLVASGYRHNITSVSQCCTISGLKKVKVQLQCVGSRREELEIFTARACQCDMCRLSRY
modifications: two N-linked glycosylations (positions not given)
notes: Secreted from the CHO 180 cell line co-expressing GPHA2 and GPHB5; also called Zsig51; alpha subunit of CGH
